T1: Ac-(NPNA)2-NH2 peptide (Plasmodium falciparum (synthetic repeat …))
T1 construct: two NPNA repeats of the central repeat region of P. falciparum circumsporozoite protein (PfCSP); also called (NPNA)2 peptide; source: synthetic peptide, bought: InnoPep Inc. (>98% purity)
T1 chain: Ac-NPNANPNA-NH2


Molecular target: T1, Ac-(NPNA)2-NH2 peptide
Assay: ITC; MicroCal Auto-iTC200; peptide 134 uM in the syringe, Fab in the cell (9.2 uM Fab311, 9.6 uM Fab311R); Dulbecco's PBS; 25 °C; triplicate experiments, 16 injections
Settings: both partners purified

Binder	Kd [nM]	stoichiometry N
Fab311 (Fab of monoclonal antibody mAb311) (Fab, V domains shown, heavy chain of Fab311; cryo-EM models 6MHG and 6MB3 hold the variable domains only; germline IGHV3-33*01; light chain of Fab311; germline IGLV1-40*01; human antibody isolated from an RTS,S/AS01B vaccinee; source: FreeStyle 293-F cells, purified as previously described (15)) VH: QVQLVESGGGVVPPGRSLRLSCATSGFTFSNYGMHWVRQAPGKGLEWVAIIWYDGSRNFYAASVEGRFTISRDNSKNTLYLQMNSLRVEDTAVYYCARAAYYDTSGYGDYWGQGTLVTVSS VL: QSVLTQPPSVSGAPGQTVTISCTGGSSNIGAGYDVHWYQQLPGTAPKLLIYGNINRPSGVPDRFSGSKSGTSASLAITGLQAEDEADYYCQSYDRRLSGSWVFGGGTKLTVL	160 ± 7	1.19 ± 0.04
Fab311R (Fab311 inter-Fab contact residue reverted) (Fab, V domains shown, the PDB entries hold the parent Fab311; also called germline-reverted Fab311; source: FreeStyle 293-F cells) VH: QVQLVESGGGVVPPGRSLRLSCATSGFTFSSYGMHWVRQAPGKGLEWVAIIWYDGSNKFYAASVKGRFTISRDNSKNTLYLQMNSLRVEDTAVYYCARAAYYDTSGYGDYWGQGTLVTVSS VL: QSVLTQPPSVSGAPGQTVTISCTGGSSNIGAGYDVHWYQQLPGTAPKLLIYGNINRPSGVPDRFSGSKSGTSASLAITGLQAEDEADYYCQSYDSSLSGSWVFGGGTKLTVL	135 ± 56	1.21 ± 0.03

From paper PMC6179375 (Science Advances, 2018)
